Test system: phospho-pEY
Assay: Protein tyrosine phosphatase activity assay with phospho-pEY substrate
Assay type: biochemical
Conditions: 5 nM phospho-pEY, 45 min
Method: Several proteins were produced in an in vitro transcription and translation reaction using 1–150 ng of plasmid DNA including: Mock Luciferase (Promega); protein tyrosine phosphatase; non-receptor type 2 (PTP-N2, IMAGE ID# 3872164, Incyte Genomics, CA); and fer (fms/fps related) protein kinase, testis specific 2 clone (Fert2, IMAGE ID# 4485050, Incyte Genomics, CA). The proteins were produced and immobilized on SA coated NPT-IPR plates, as described in Example 7. […]
A tyrosine phosphate substrate was prepared by enzymatically phosphorylating poly(Glu, Tyr). […] The phosphorylation in the product was determined by transferring serially diluted reaction mixture to a streptavidin-coated NPT IPR plate and assaying for phosphorylated-poly(Glu, Tyr) as described in previous examples (see, e.g., Example 7).
The phosphorylated poly(Glu, Tyr) was used as a substrate to measure the phosphatase activity of the purified and immobilized PTP-N2. […] Following this incubation 45 μl of this mixture was transferred to a streptavidin-coated NPT IPR plate and the solution analyzed for phospho-poly(Glu, Tyr) content as described above.

ECL signal: 70,574
B1: PTP-N2: protein tyrosine phosphatase, non-receptor type 2, IMAGE ID# 3872164 (protein, UniProt P17706 1-415, looked up)
Tyrosine-protein phosphatase …: MPTTIEREFEELDTQRRWQPLYLEIRNESHDYPHRVAKFPENRNRNRYRDVSPYDHSRVKLQNAENDYINASLVDIEEAQRSYILTQGPLPNTCCHFWLMVWQQKTKAVVMLNRIVEKESVKCAQYWPTDDQEMLFKETGFSVKLLSEDVKSYYTVHLLQLENINSGETRTISHFHYTTWPDFGVPESPASFLNFLFKVRESGSLNPDHGPAVIHCSAGIGRSGTFSLVDTCLVLMEKGDDINIKQVLLNMRKYRMGLIQTPDQLRFSYMAIIEGAKCIKGDSSIQKRWKELSKEDLSPAFDHSPNKIMTEKYNGNRIGLEEEKLTGDRCTGLSSKMQDTMEENSESALRKRIREDRKATTAQKVQQMKQRLNENERKRKRWLYWQPILTKMGFMSVILVGAFVGWTLFFQQNAL

Source: patent publication US7063946B2, “Methods, reagents, kits and apparatus for protein function analysis” (Meso Scale Technologies, LLC., priority 2001, dated 2006)
